{
  "source": "paper PMC6638984",
  "about": "(2019)",
  "molecular_target": "T1, BS69 coiled-coil MYND domain (BS69_(CC-MYND), amino acids 480-602) (human, UniProt Q15326 480-602)",
  "T1 chain": "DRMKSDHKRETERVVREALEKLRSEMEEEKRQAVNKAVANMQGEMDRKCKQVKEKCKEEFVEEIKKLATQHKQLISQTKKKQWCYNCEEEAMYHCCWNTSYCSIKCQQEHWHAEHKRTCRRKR",
  "assay": "ITC",
  "data": [
    {"binder": "type 1 EBNA2 polypeptide T1 EBNA2_(381-455) (domain or fragment) SMPELSPVLGLHQGQGAGDSPTPGPSNAAPVCRNSHTATPNVSPIHEPESHNSPEAPILFPDDWYPPSIDPADLD", "values": [
      {"measurement": "Kd", "value": 730, "unit": "nM"}
    ]}
  ]
}
